Test: soluble on expression in E. coli; label from the status in PepcDB or PDB records

| Sequence | soluble on expression in E. coli |
| --- | --- |
| MSLSEELSFSAMVKAELALLTPELPCCRRMELAGLVRALGRLELSGRGRFALTLSTDSAPVSRKVIRLLKSVSPVRYEVMVMRRRKLRKNLVYRVHIPHQPGVAELLQLAGFIDEAGRPADWVEPPELANDHCRRAFLRGTFLGSGWVAGPEKQHHLEITTTATEAADALGQMLFRGGIAARMVARRESLVLYIKEADQIIRFLGLVGAHQALLRYEEVRVIKEMKNQVNRQVNAEVANMTKQADAAARQVEAIKRLEAAGALERVSPPLRELAGLRLAYPDASLKELGELCRPPVSKSGAAHRMRQLMALAESLEEGHHHHHH | soluble |
| MSLSEILTIGEPIVTFASKEPDVSLRDALEFHKILGGAELNVAIGAQRLGHSVDYISQVGEEPLGDYVIKTIKEHHVGTRYITRDADYWTAFQLKDRVTQGNPTTQNYRRGSAAAHLTPAVVDQIDLTDVRAAHMSGIFPAISATAEAAFRTLLKRLEAANILTTFDPNLRPTLWPSRGKMVTTLNELAGHAEIVLPGVEEGEILMGSTDPEKIADFYLRGARTKVVIVKVGPAGAYVKQQSGESYTVTGFKVAQVADTVGAGDGFAMGVLTALLEHKSLRSAVMRGNAVGALQVQTYGDNDGYPTPAGLQAFYQQEGVVEEGHHHHHH | not soluble |
| MSLSEIVVSKFGGTSVADFDAMNRSADIVLSDANVRLVVLSASAGITNLLVALAEGLEPCERFEKLDAIRNIQFAILERLRYPNVIREEIERLLENITVLAEAAALATSPALTDELVSHGELMSTLLFVEILRERDVQAQWFDVRKVMRTNDRFGRAEPDIAALAELAALQLLPRLNEGLVITQGFIGSENKGRTTTLGRGGSDYTAALLAEALHASRVDIWTDVPGIYTTDPRVVSAAKRIDEIAFAEAAEMATFGAKVLHPATLLPAVRSDIPVFVGSSKDPRAGGTLVCNKTENPPLFRALALRRNQTLLTLHSLNMLHSRGFLAEVFGILARHNISVDLITTSEVSVALTLDTTGSTSTGDTLLTQSLLMELSALCRVEVEEGLALVALIGNDLSKACAVGKEVFGVLEPFNIRMICYGASSHNLCFLVPGEDAEQVVQKLHSNLFEEGHHHHHH | soluble |
| MSLSERIIVTYQVAAAPAEIAARAEALAIEQSVECPLAAVTEQQIRDEIVGRVEAIAPIGETRFSVRVSLASATAPAEPGQLLNMLFGNSSIQPDVTLADVELPPAYPAAFGGPKLGISGLRAKLGAPRRALTGSALKPQGLAPEALAGLAHRLALGGVDLIKDDHGIADQAFSPFAARVPAVARAMREACAVRGAAMLYAPHVSGSLDDMRRQLDIVRREGLSVVMLMPMIVGLANFHLIAKEAEGLIVLAHPSLAGAQRIAPDLLLGKLFRLLGADATIFPHYGGRFAYTPETCRALADAARRDWHDLKPCLPVPAGGIAIDRIKELLAFYGTDVMLLIGGSLLAAGEQLTEHAARFTAEVASHGQEGHHHHHH | soluble |
| MSLSETLTLSDAKSIIENQIEELAKRNKEPEWMTKIRYKALEEFMKAPLNDPVIDEETLLNFIAKPEIEGIPEKVESLDDLPPEMKDLLDRLGINEVEQKYIAGLAVQTDTGVIYNQFLQEWAKKGLIVLPTEEAVRRYPDIMKEHFLKLFKAGESKLTAYHIAIWNGGIFLYVKENLKVPFPLHLFFLIQESSLAQAPHITIIAEKNSEVHLIEGCTAPILVRHSLHLDMTEAYLHENAKVRLTVLQNWPEYVHTRPMTRAKVGRNAEFINTTVSLGAGKSNIANPKYWVGENGYVELNGVILGQKDWYIDLGGEMHLQGEGGRGINASKSVIMDESTVITRGKIVAEAKKTKGHISCDALLLSDKARMETYPGLVSLVDEAELSHEAAIGKIKEEELFYLMSRGLSEEKATQLIVKGFVEPMLKDIPIEFVVEIKKIIELAVSGGFEGHHHHHH | soluble |
| MSLSETSEHPVDGDELLVRTVLSNQALKRIFTHRTDSMTECYQVEKTFLQSEQSLLIGHQLHPTPKSRQGIDEDEELLFTPERKGSFQLHYFRAACELVDEKSALADSASELIKHDLLHDPNVQDSFKASYCQADDYVLLPVHPLQARKLLGKKEIADLIQAGKLSYLGPQGRAFYPTSSLRTVYHPEAEYMYKFSIPVKITNSLRVNKRKELARGVEVSELLKNGLYDQLKAEHPAFNIVQDPAYITLSLDSEESGLETVIRENPFRQGGEERTTLLAALCQDSIQGNSHLTNLMVELAKQKKISVTEASKWWFSRYLNVSLRPLYWLYATHGIALEAHQQNSIIKLDAEGLPSLFYYRDNQGYYFMQSKAETLKQFVPTLNEQSDTICSDAVAEERFRYYVFFNHLFGLVNAFGTNRLIDEEQLLHILREELTLLRQQFGDPTNLVNSLLHEEMLPCKANLLTRIHDMDELEGSLATQSVYVPVPNPLVVMAGELHEGHHHHHH | soluble |
| MSLSEVSLRPAKISTVLPGSLGEEMGFEPGDAIVRINGQAPRDLIDYQFLCADDYLELDVLDSQGELHELAVEKEFDQDLGLGFETALFDGLIQCNNRCPFCFIDQQPPGKRESLYYKDDDYRLSFLYGSYLTLTNLSAKEWQRIEQLRLSPLYVSIHATEASVRERLLKNHRAGQILDQLAWFQARRLQIHAQVVVCPGVNDGKHLEQTLRDLAQFHQGETPAVISVAVVPVGLTRFRPQEDELSPVGQAKATEVIAQVQALQKEFAQQLGGNFVWLADEWFLIARQPLPPESHYEDYPQIGNGVGSIRQFIKEFQQQAAEFLPPAIAEAKTLTWVVGNAVEQAFELLVEQLNQVKGLTVNLAPLNSDYWGQEITVTGLLTGQDLIAKLAGRDLGDGILLPALMLKHDDTRFLDDLRVADVAQKLGTTIYPVADVASLLEHCVQPMAVSREGHHHHHH | soluble |
| MSLSFHEIRFPASLSFGSVGGPERRTDVVTLANGFEERNTPWAHSRRRYDAGMGMRSLDDIEALIAFFEARQGQIFGFRWKDWSDYKSARPTAEVDFRDQVIGLGDGVQTGFQLLKSYRSGDSIYPRPIAKPVDGTVRMGLGQEEIKEGIDFTLDPTTGMVVLSHPPENGIEVVAGFEFDVPVRFDTDRILTSVASFQAGDVPNVPVVEVRAEGHHHHHH | soluble |
| MSLSGDLIDGLRDLNVLVVQPHDGSTEELLKQIGRIGCNATAVWPFPQSIPDGTDMIFMEITHPLDANAVRLLGVESVDAPTVVGIIAYENPSVLKGIIDLKIDTVLAKPIRPFGVLSHMLMARSVCLARRRDEEELQKLRRKIQAIQKIADAKFILMRHHSINETEAYKIIRSQAMAKRTSTLEIAQSVINAESILSGMAPHDLTARMQSQTEGHHHHHH | not soluble |
| MSLSGIYEIAILGRATWQLHSLNNEGTVGNVTEPRSVRIIDPNTKKAVTTDGISGEMLKHIHTEIMWTLDDKNNLCDACKVLNPEKFNFAIKSKKATPKDVEDALKQALNTCDICDVQGFLLERPTASRKSTVEFGWALGIPEVYRDIHTHARHALGEKGKREKTEESEEEVGGVSTQMVYHRPTRSGVYAIISVFQPWRIGLNEAKQDKYTYDANDNARERRYQLALKAYPLLFARPEGAMTTTRLPHVEDFSGVIVYSTKPIPVPIISPLKSNYVDEVKTIVENIDDSLKVAEFNGIAEFAMKIGELIKNKPYKMEFEGHHHHHH | soluble |
| MSLSGPRNQILVSITDAPKIHILDPSTEYCVGDYVAYQLNGVAPFMIKYEFNGIPLKSKERSSQFVRLASEPGIISITSLQDSSSQCIVDFTNPKLKSEFDDLSLNIHPIPSVTVSQGNYVTEDIREGDQAEVIFSFEGTPPFSLTYVRTEETDGKHGKRRSQVVETHKVTDIYSHEYKVITSLQGTYEAIEITDAYCFAKNDLFFNNEGHHHHHH | soluble |
| MSLSGVVERITFVNEENGFSVVKIKSKGFSDLVTAVGNMASVNVGAVVSLRGEWKYDSKFGRQFNVYHYEESIPATVAGIEKYLGSGLIKGIGPVNAKRIVKVFKEDTIRVIEEEPDRLIEVPGIGKKRVEMIKEAWQNQKEIKNVMLFLQSHGVSTAFAVKIFKTYGSDSIKIVKENPYRLADDIWGIGFKTADKIAQNMGYDKESYARIRSGIMYALNEFANDGHCFAKKDELVNKASELLGVELEKVETAIQHMLEEKSVIMEEDDAVYLPPFYYSEVGVARRIREIIETKSMYSFYNFDGIIEDLQRECNIQYDEVQIEAIRKAVVSKFMVLTGGPGTGKTTTTLAIIKVFQKLGATVLLAAPTGRAAKRMSEATGMEAKTIHRLLEYSPQDGYKKNDDNPLECDVLIIDETSMIDIILMYNLLKAVSNNTVVILVGDVDQLASVGAGNVLKDIIESGMVTVVRLMRIFRQAMGSAIVTNAHKINHGEYPVLKGGKNSNFFFIEEEDPEKIVELVRELCSKRLPGYYKINPLNDIQVLCPMQKGVVGAQNLNTVLQETLNPCDISIKYGGTIYKLNDRVMQIKNNYDKNVFNGDMGIITDIDQEEKTVRIKFDDAEVEYDVTELDEVTLAYAVTVHKSQGSEYNFVVAPFTMQHYMMLQRNLLYTCVTRAKKVLVLIGSKKALGCCIRNSRSMDRNTKLAQRLKADTEGHHHHHH | soluble |
| MSLSHMANEMLLDIDGMDFVEDEDMGAEGELQFSFDPVSNAPMVSFPSTQQPDLEKLRFKFAPVLSRSFAFNGGSRTGTLYGVQVPYVDNSKEFSQYAAKLFEVYKSLGADKQFAVPTIGLINHTSTLEHNQTVNLALEAIVSELELFIESLKYSGRQQRLVDLEECLSILNCLKTVQFTLDSEEENSRAKFIDSLISWVNRTDGEPSEAVIAKVLGDGKQTPILENPYFWRLLCQLIIRGLFDQAVAAIEKSELLSYLADKCSATHTMVQDMVNLLQGYPRELEPVYREWKDLVLQLHLNWSQSEHKISIELASSLEDCLLIMCGNKSKIIYYSKTWYECYCGLMLYYIPSLQLSEEYLQLVLKEHPLDVTSPWEQACVSIITGKIYSILPVLDSLDSCTAAFTAAICEAKGLLENDLLDDGGLEVSNTGDEMFGLGNTMASYLLNQFALSIVTYEDKNLWAVAIGIIYLTPNYSDAAKRMMIAELLPHYPFQTNDDIEWMLTICAKWKLPQIARTIYRVLGQEALYLNNIIEAISNFSKAGEFEWVKHYSWMIFEASILQGAPLEDEVVNSIVTGEYESAIPKELVEVMVTPAMKQSLSPYAVLFNFFRATEDGRWAEALKLLLSLIEFTYLPPQYLILLIGRFLYPLFLQDESKMFKEQDVLRVIKALEQFHDRPDEITTAMYKELLVKVDTLPKDPLNLINAIRTKLSLKLCHQFMEGHHHHHH | not soluble |
| MSLSIFSHFQERFEATRQEEYSLQEYLDLCKQDKTAYASAAERLLMAIGEPELLDTSVDSRLSRIFSNKVIRRYPAFADFHGMEECIDQIVAFFRHAAQGLEEKKQILYLLGPVGGGKSSLAEKLKQLMEKVPFYAIKGSPVFESPLGLFNPDEDGAILEEDYGIPRRYLRSIMSPWATKRLNEFGGDISQFRVVKLYPSILNQIAIAKTEPGDENNQDISALVGKVDIRKLEEYPQNDADAYSYSGALCRANQGLMEFVEMFKAPIKVLHPLLTATQEGNYNSTEGLGALPYSGIILAHSNESEWHSFRNNKNNEAFIDRIYIVKVPYCLRVADEIKIYDKLLVNSSLAHAHCAPDTLKMLSQFSVLSRLKEPENSNIYSKMRVYDGENLKDTDPKAKSIQEYRDSAGVDEGMAGLSTRFAFKILSKVFNFDPHEVAANPVHLLYVLEQQIEQEQFQPETRERYLRFIKEYLAPRYVEFIGKEIQTAYLESYSEYGQNIFDRYVLYADFWIQDQEYRDPETGEILNRAALNEELEKIEKPAGISNPKDFRNEIVNFVLRARAGNNGKNPSWLSYEKLRVVIEKKMFSNTEDLLPVISFNAKASKEDQQKHNDFVKRMVERGYTEKQVRLLSEWYMRVRKSQEGHHHHHH | soluble |
| MSLSIKNIKRIITAWKPSTFETYKKTFEKYGGSVNMHPDVVSYFMIHHDWKFDFFHYEKDGDIKGSYFLCNGKQIGIMARRSYPLSSDEVLIPFSPHARCFFPDKTNKLSIINKQNIINATWKIARKKQNCIIKESFSPKFEKTRRNEIQRFIRNGGEIKCISQLSDKEISSSYISLFHSRFGGTLPCYEYDNLLMFISHLRELMFGHVLFWDNKPCAIDIVLKSESSCNVYYDVPNGAVLNDENCMKLSPGSVLMWLNIDKARRYCQDNNKKMIYSIGAFRPEWKYKLLWSVPCKVGKCLCEGHHHHHH | soluble |

— the DeepSol protein solubility set
